Assay results reported in patent US20260139001A1.

Target: SARS-CoV-2 Spike RBD, Wuhan (SARS-CoV-2) (UniProt P0DTC2)

Substance: Ribosomally constructed Wuhan-NS (VHH72 V104UAG construct translated with NBDxK-tRNACUA)
- normalized tube fluorescence: 0.58
